Reference: US6034062A, “Bone morphogenetic protein (BMP)-9 compositions and their uses” (Genetics Institute, Inc., priority 1997, dated 2000)

Columns and labels:
[1] = system: BMP-9 receptors expressed on HepG2 cells; experiment: 125I-BMP-9 binding to HepG2 cells; details: HepG2 cells, 125I-BMP-9 and 250-fold excess of unlabeled ligand
Method: BMP-9 responsiveness in parenchymal liver cells is tested by screening four liver cell lines for their ability to bind iodinated, CHO-derived BMP-9. […] Specific binding of BMP-9 to HepG2 cells is carried out by incubating HepG2 cells grown to confluence in Dulbecco's Modified Eagle's Medium (DME) containing 10% heat-inactivated fetal calf serum (FCS) on gelatinized 6 well plates with 2 ng/ml ^125 I-BMP-9 and increasing concentrations of unlabelled BMP-9 in binding buffer (136.9 mM NaCl, 5.37 mM KCl, 1.26 mM CaCl2, 0.64 mM MgSO4, 0.34 mM Na2 HPO4, 0.44 mM KH2 PO4, 0.49 mM MgCl2, 25 mM HEPES and 0.5% BSA, pH 7.4) for 20 hours at 4° C. to achieve binding equilibrium. This incubation follows a one hour preincubation at 37° C. in binding buffer alone. For crosslinking experiments, the cells were incubated with 500 μM disuccinimidyl suberate for 20 minutes at […] following binding. Cell extracts were analyzed on SDS-PAGE. […] To test the binding specificity of the receptors for BMP-9, HepG2 cells were incubated with ^125 I-BMP-9 and a 250-fold excess of different unlabeled ligands.

[2] = system: Articular cartilage explants from calf carpal joints; experiment: Articular cartilage assay (proteoglycan synthesis, sulfate incorporation); format: cell-based; details: 100 ng/ml, calf articular cartilage explants
Method: The effect of BMP-9 on articular cartilage proteoglycan and DNA synthesis is assayed to determine if BMP-9 is involved in the regulation of metabolism of differentiated articular cartilage.
Articular cartilage explants from calf carpal joints are maintained in DMEM with 50 μg/ml ascorbate, 4 mM glutamine and antibiotics for 3 days. Cytokines (rhBMP-2, rhBMP-4, rhBMP-6 and rhBMP-9, IGF-1, bFGF (1-1000 ng/ml), and TGFβ (1-100 ng/ml)) are added to the medium and culture is continued for 3 more days. Medium is changed daily. Twenty-four hours prior to harvest, explants are pulsed with 50 μCi/ml ^35 SO4 or 25 μCi/ml ^3 H-thymidine. Explants are solubilized and separation of free isotope is performed by gel chromatography. Total DNA of each explant is measured by a spectrophotometric assay.

Molecule	crossreactivity of BMP-9 receptors with unlabeled ligand [1]	proteoglycan synthesis [2]
TGF-β2: transforming growth factor β2 (protein) ALDAAYCFRNVQDNCCLRPLYIDFKRDLGWKWIHEPKGYNANFCAGACPYLWSSDTQHSRVLSLYNTINPEASASPCCVSQDLEPLTILYYIGKTPKIEQLSNMIVKSCKCS	no crossreactivity	
BMP-6: BMP protein, cytokine in cartilage assay and competing ligand (protein) SASSRRRQQSRNRSTQSQDVARVSSASDYNSSELKTACRKHELYVSFQDLGWQDWIIAPKGYAANYCDGECSFPLNAHMNATNHAIVQTLVHLMNPEYVPKPCCAPTKLNAISVLYFDDNSNVILKKYRNMVVRACGCH	no crossreactivity	significantly more active in stimulating proteoglycan synthesis
BMP-4: BMP protein, cytokine in cartilage assay and competing ligand (protein) SPKHHSQRARKKNKNCRRHSLYVDFSDVGWNDWIVAPPGYQAFYCHGDCPFPLADHLNSTNHAIVQTLVNSVNSSIPKACCVPTELSAISMLYLDEYDKVVLKNYQEMVVEGCGCR	limited crossreactivity	significantly more active in stimulating proteoglycan synthesis
BMP-12: BMP protein used as unlabeled competing ligand (protein, UniProt Q7Z4P5 322-450, looked up) Growth/differentiation factor …: TALAGTRTAQGSGGGAGRGHGRRGRSRCSRKPLHVDFKELGWDDWIIAPLDYEAYHCEGLCDFPLRSHLEPTNHAIIQTLLNSMAPDAAPASCCVPARLSPISILYIDAANNVVYKQYEDMVVEACGCR	no crossreactivity	
BMP-3: BMP protein used as unlabeled competing ligand (protein) QWIEPRNCARRYLKVDFADIGWSEWIISPKSFDAYYCSGACQFPMPKSLKPSNHATIQSIVRAVGVVPGIPEPCCVPEKMSSLSILFFDENKNVVLKVYPNMTVESCACR	no crossreactivity	
BMP-5: BMP protein used as unlabeled competing ligand (protein) AANKRKNQNRNKSSSHQDSSRMSSVGDYNTSEQKQACKKHELYVSFRDLGWQDWIIAPEGYAAFYCDGECSFPLNAHMNATNHAIVQTLVHLMFPDHVPKPCCAPTKLNAISVLYFDDSSNVILKKYRNMVVRSCGCH	no crossreactivity	
BMP-7: BMP protein used as unlabeled competing ligand (protein) STGSKQRSQNRSKTPKNQEALRMANVAENSSSDQRQACKKHELYVSFRDLGWQDWIIAPEGYAAYYCEGECAFPLNSYMNATNHAIVQTLVHFINPETVPKPCCAPTQLNAISVLYFDDSSNVILKKYRNMVVRACGCH	no crossreactivity	
